From US20260152553A1 (LYELL IMMUNOPHARMA, published 2026)

B2: CD19/CD20 bispecific CAR (Leu16 scFv-(G4S)4-FMC63 scFv-IgG4 hinge-CD28 TM-4-1BB-CD3 zeta) (other)
chain: DIVLTQSPAILSASPGEKVTMTCRASSSVNYMDWYQKKPGSSPKPWIYATSNLASGVPARFSGSGSGTSYSLTISRVEAEDAATYYCQQWSFNPPTFGGGTKLEIKGSTSGGGSGGGSGGGGSSEVQLQQSGAELVKPGASVKMSCKASGYTFTSYNMHWVKQTPGQGLEWIGAIYPGNGDTSYNQKFKGKATLTADKSSSTAYMQLSSLTSEDSADYYCARSNYYGSSYWFFDVWGAGTTVTVSSGGGGSGGGGSGGGGSGGGGSEVKLQESGPGLVAPSQSLSVTCTVSGVSLPDYGVSWIRQPPRKGLEWLGVIWGSETTYYNSALKSRLTIIKDNSKSQVFLKMNSLQTDDTAIYYCAKHYYYGGSYAMDYWGQGTSVTVSSGSTSGSGKPGSGEGSTKGDIQMTQTTSSLSASLGDRVTISCRASQDISKYLNWYQQKPDGTVKLLIYHTSRLHSGVPSRFSGSGSGTDYSLTISNLEQEDIATYFCQQGNTLPYTFGGGTKLEITESKYGPPCPPCPMFWVLVVVGGVLACYSLLVTVAFIIFWVKRGRKKLLYIFKQPFMRPVQTTQEEDGCSCRFPEEEEGGCELRVKFSRSADAPAYQQGQNQLYNELNLGRREEYDVLDKRRGRDPEMGGKPRRKNPQEGLYNELQKDKMAEAYSEIGMKGERRRGKGHDGLYQGLSTATKDTYDALHMQALPPR

Legend:
[1] = biological target: B2; assay: flow cytometry, staining of T cells (donor 1917) transduced with CD19/20 CAR lentiviral vector
Excerpt: Direct Detection of CAR+ cells by Flow Cytometry. Direct measurement was used to detect expression of CD 19/20 CAR. Because quantification of a tEGFR protein may not provide an accurate measurement of surface CAR expression, tEGFR was removed from the Lentiviral vector as described herein, and instead utilized antibodies which bound to the scFv domains of the CD19/20 CAR protein to report surface CAR expression.

[2] = biological target: T1, CD19 (human, UniProt P15391 20-556); assay: cell-based or functional assay
T1 sequence (looked up): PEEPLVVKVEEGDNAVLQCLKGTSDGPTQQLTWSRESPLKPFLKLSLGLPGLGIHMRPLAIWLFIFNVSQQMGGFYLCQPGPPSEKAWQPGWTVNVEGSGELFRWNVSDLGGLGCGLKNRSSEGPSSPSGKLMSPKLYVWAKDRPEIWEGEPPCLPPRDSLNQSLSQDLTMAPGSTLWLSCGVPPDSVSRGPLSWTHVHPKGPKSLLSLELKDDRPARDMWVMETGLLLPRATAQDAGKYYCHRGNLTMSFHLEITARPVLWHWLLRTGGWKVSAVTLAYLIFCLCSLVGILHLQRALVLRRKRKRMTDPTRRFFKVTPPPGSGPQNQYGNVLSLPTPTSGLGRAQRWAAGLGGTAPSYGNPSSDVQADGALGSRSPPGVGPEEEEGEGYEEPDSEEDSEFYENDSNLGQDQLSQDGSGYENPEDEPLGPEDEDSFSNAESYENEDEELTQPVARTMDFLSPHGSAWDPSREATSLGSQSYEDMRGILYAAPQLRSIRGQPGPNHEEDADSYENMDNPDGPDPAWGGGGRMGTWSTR

B1: CD20 Protein-Biotin (Acros) (other, UniProt P11836 1-297, looked up)
chain: MTTPRNSVNGTFPAEPMKGPIAMQSGPKPLFRRMSSLVGPTQSFFMRESKTLGAVQIMNGLFHIALGGLLMIPAGIYAPICVTVWYPLWGGIMYIISGSLLAATEKNSRKCLVKGKMIMNSLSLFAAISGMILSIMDILNIKISHFLKMESLNFIRAHTPYINIYNCEPANPSEKNSPSTQYCYSIQSLFLGILSVMLIFAFFQELVIAGIVENEWKRTCSRPKSNIVLLSAEEKKEQTIEIKEEVVGLTETSSQPKNEEDIEIIPIQEEEEEETETNFPEPPQDQESSPIENDSSP
modifications: biotin (site not stated)
notes: Bought detection reagent; construct not described
- % Positive Cells [1]: 68.1%

Binder: B2
- IFN-γ and IL-2 production, 1:1 effector:target cell ratio or greater, 24 hours, target cells lacking CD20 [2]: > 1000
